PMC7020209 (Plants, 2020)
Read-outs that look alike come from different tables or passages of the source.

Experiments:
Conditions in all cases: co-substrate O2, 30 °C
N3-GOX = test: O2 consumption, Hansatech oxygen electrode, nonlinear Michaelis-Menten fit; type: biochemical, synthetic construct
From the text: O2 consumption, Hansatech oxygen electrode, nonlinear Michaelis-Menten fit on N3-GOX

purified protein [1] = substrate: C[C@H](O)C(=O)O; test: purified protein
purified protein [2] = substrate: O=C(O)CO; test: purified protein

Row | Molecule | Km (N3-GOX; read-out: Glycolate / Km) | Km (N3-GOX; read-out: L-Lactate / Km) | Km (purified protein [1]) | Vmax (purified protein [1]) | Km (purified protein [2]) | Vmax (purified protein [2])
1 | Cp-GOXc (Cyanophora paradoxa) (protein) MQPLSAQALAQYRAAAPMDPVNVMEYQMVAKEKLPKMVYDYYASGADDQWTLQEARSAFERITFRPRVLVDVSVQDMSTTILGQKVAFPICVAPTAMQCMATGQGEKATSRAVASMNTLMTLSSWSTTPLEEVAKAAPHGARWFQLYVYKDRACTERLVRRAQAAGYKALCLTVDTPRLGRRENDVKNRFHLPDGLTMGNFLDLVQAEMPTDQKDSGLAAYVASLIDPTLNWKDVEWLKTITNLPIVVKGVLTAEDALMAVKHGCAGIVVSNHGARQLDYSPATIDVLEEVVNAVRGYPIEVYLDGGVRRGTDALKALALGARAVFVGRPVVWGLAAGGEEGVRKVLTMLRDEFKLGLALLGCQSLKDINRSMVVTPADRAKTAVRARL | – | – | 9.27 ± 1.44 mM | 6.94 µmol/min/mg | 0.38 ± 0.05 mM | 8.98 µmol/min/mg
2 | Sp-GOX (Spirogyra pratensis) (protein) MSSEVVNVTEFQAIAKQKLPKQTYDYYASGAEDEWSLRENRNAFERITFRPRILIDVSKIDLTTSVLGYRLSMPIMVAPTAMQKMAHPDGELATARAATSMNTAMTLSSWATSSVEEVSSTGPGLRFFQLYVYKNRDVVLQLVRRAEKAGFKAIALTVDTPRLGRREADIRNKFVLPPGLTLKNFEGLDLGKMDQTEDSGLASYVAGQIDRSLSWKDVKWLQSVTSMPILVKGVITGEDAKIAVECGASGIIVSNHGARQLDYVSSTINALEEVVKATAGRIPVFLDGGVRRGTDVLKALALGAKGVFVGRPVVFALASDGEAGVKKCLQMLRDEFELAMALAGCTKISDINRSLVQTEGDRIRMAARL | – | – | 15.52 ± 4.55 mM | 24.2 µmol/min/mg | 0.94 ± 0.12 mM | 28.1 µmol/min/mg

Now from value to molecule, other results behind:

Row | Km (N3-GOX; read-out: Glycolate / Km) | Km (N3-GOX; read-out: L-Lactate / Km) | Molecule | Km (purified protein [1]) | Vmax (purified protein [1]) | Km (purified protein [2]) | Vmax (purified protein [2])
3 | 11.8 ± 0.61 mM | – | O=C(O)CO [glycolate] | – | – | – | –
4 | – | 13.7 ± 1.93 mM | C[C@H](O)C(=O)O [L-lactate] | – | – | – | –
